Measurements reported in publication PMC5737849, “Structural study of the Fox-1 RRM protein hydration reveals a role for key water molecules in RRM-RNA recognition”.
Where a chain is given by its changes, count along the chain named.

Key:
Fox-1 RRM S155A = target: T1, Fox-1 RRM S155A (UniProt Q9NWB1 109-208, S155A); assay: NMR (1H-1H TOCSY); 1:1 ratio, 20 mM NaCl, pH 6.5, 40 C; switchSENSE: 10 mM Tris-HCl pH 7.4, 140 mM NaCl, 0.05% Tween20, 25 C; NMR: 10 mM phosphate pH 6.5, 20 mM NaCl, 40 C; details: protein: recombinant; tags: N-terminal 6xHis (pET28a); single strand
T1 sequence: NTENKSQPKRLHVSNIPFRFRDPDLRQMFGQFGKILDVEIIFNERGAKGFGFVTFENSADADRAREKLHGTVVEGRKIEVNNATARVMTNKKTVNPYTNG

Fox-1 RRM WT = target: T2, Fox-1 RRM WT (UniProt Q9NWB1 109-208); assay: as above; details: protein: recombinant; tags: N-terminal 6xHis (pET28a); single strand
T2 sequence: T1 sequence with A47S

B1: 5'-UGCAUGU-3' RNA oligonucleotide (NMR) (ssRNA)
RNA: UGCAUGU
B1: binds (Fox-1 RRM S155A); binds (Fox-1 RRM WT).
